Key:
[1] = test system: ferritin heavy chain (FTH1); assay: Western blot assay of ferritin degradation (ferritinophagy) in HeLa cell lines; format: cell-based; details: EGFP-fused constructs stably integrated in NCOA4Δ HeLa cells; 40 μM FAC 24 h then 50 μM DFO 24 h; quantitative Western blot FTH1/tubulin, triplicate
Description: Stably integrated NCOA4^383−522 cell lines were generated via retroviral transfection of the relevant NCOA4^383−522 construct in a CMV-enhancer–bearing pMRX plasmid (84573; Addgene) into NCOA4Δ HeLa cells (a gift from Prof. M. Poli, University of Brescia, Italy) ([Gryzik et al, 2021]). In this pMRX plasmid, EGFP was fused to the N terminus of NCOA4^383−522 and its mutants with a 13-residue GS linker. HeLa cells were transfected and selected as described previously ([Sena-Esteves & Gao, 2018]).
After 24-h, all media were aspirated and replaced with either DMEM or DMEM supplemented with 40 μM ferric ammonium citrate (FAC). After an additional 24 h, all media were aspirated and replaced with either DMEM or DMEM supplemented with 50 μM deferoxamine (DFO). After an additional 24-h incubation, cells were trypsinized (200 μl, 5 min, 37°C), pelleted via centrifugation at 100g for 1 min, resuspended in Dulbecco’s PBS (D8537; Sigma-Aldrich), and pelleted as above before undergoing flash freezing in liquid nitrogen and storage at −80°C.
Frozen cell pellets were resuspended in 100 μl 4X Laemmli buffer with Halt protease and phosphatase inhibitor (78440; Thermo Fisher Scientific) and lysed with a 29-gauge syringe. […] Ferritin levels were then measured by densitometry in FIJI ([Schindelin et al, 2012]) and normalized to tubulin intensity measured as above.

lysosomes (LAMP1) = assay: Immunofluorescence colocalization of GFP-NCOA4^383−522 with lysosomes (LAMP1); format: cell-based; details: GFP-fused constructs in NCOA4Δ HeLa cells, 50 μM DFO 24 h; anti-GFP and anti-LAMP1; area of overlap per nucleus and Manders' coefficient
Procedure: For colocalization assays, NCOA4^383−522 cell lines were seeded on glass coverslips in a 12-well cell culture plate in DMEM as above. After 24 h, media were aspirated and replaced with DMEM supplemented with 50 μM DFO, and cells were incubated for an additional 24 h. Cells were then fixed with 4% paraformaldehyde in PBS (150 mM NaCl, 2.7 mM KCl, 10 mM Na2HPO4, 1.8 mM KH2PO4, pH 8.0) for 15 min at RT, quenched with 100 mM glycine in PBS for 10 min, and washed three times with PBS. Cells were next permeabilized with 0.5% Triton X-100 in PBS for 10 min, washed once with PBS, and blocked for 30 min in 2% BSA in PBS. Slides were next incubated in anti-GFP mouse antibody (sc-9996; Santa Cruz) diluted 1:200, anti-LAMP1 rabbit antibody (9091T; Cell Signaling) diluted 1:200, and Hoechst stain (H3570; Invitrogen) diluted 1:1,000, in 2% BSA in PBS for 1 h. […]
All image analysis was conducted in FIJI ([Schindelin et al, 2012]). […] The overlapping regions were then measured, and the area per nucleus was recorded. […] For all images, threshold values were manually chosen for the pink and green channels, and Manders’ value, which calculates the fraction of the pink signal that overlaps green signal, was recorded.

B1: NCOA4^383-522: NCOA4 fragment of residues 383–522; biotinylated AviTag-His6-NCOA4-MBP in vitro, EGFP fusion in cells (protein)
chain: SMVTEDWLVQNHQDPCKVEEVCRANEPCTSFAECVCDENCEKEALYKWLLKKEGKDKNGMPVEPKPEPEKHKDSLNMWLCPRKEVIEQTKAPKAMTPSRIADSFQVIKNSPLSEWLIRPPYKEGSPKEVPGTEDRAGKQK
modifications: biotin on the AviTag (BirA co-expressed); left off: AviTag, N-terminal, kept | His6, N-terminal, kept | MBP, C-terminal, kept
notes: NCOA4 fragment of residues 383–522; biotinylated AviTag-His6-NCOA4-MBP in vitro, EGFP fusion in cells
- ferritin degradation upon iron chelation with DFO (in words) [1]: ferritin degradation was robust
- NCOA4:lysosome colocalization (in words) (lysosomes (LAMP1)): significant colocalization

— article PMC12872393, “NCOA4 initiates ferritinophagy by avidly binding GATE16 using two short linear interaction motifs” (Life Science Alliance, 2026)
